Source: the nanobody polyreactivity screen of Harvey et al. (2022)

Experiment: yeast display, Sf9 membrane polyspecificity reagent, FACS + sequencing; frameworks hold sequencing errors
How it was run: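 After 36–48 hours of galactose induction, yeast (Saccharomyces cerevisiae BJ5465) displaying a synthetic nanobody library were stained at 4 °C for 1 hour with 10% biotinylated, detergent-solubilized Sf9 membrane reagent. Streptavidin microbeads enriched the stained cells before FACS sorting into low and high (top ~1%) gates on anti-HA and streptavidin fluorescence. Each clone's polyreactivity label reflects its gate of origin.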

QVQLVESGGGLVQARGSLRLSCAASGIIFYPNAMGWYRQAPGKERELVASIRSGGITTYADSVKGRFTISRDNAKNTVYLQMNSLKPEDTAVYDCATRSYYRYATFAYYYWGQGTQVTVSS
polyreactivity (PSR sort gate): high polyreactivity

QVQLVESGGGLVQAGGSLRLSCAASGSIFADYAMGWYRQAPGKERELVAAITGSGGRTYYADSVKGRFTISRDNAKNTVYLQMNSLKPEDTAVYYCAAEGTTWYYDMDYWGQGTQVTVSS
polyreactivity (PSR sort gate): low polyreactivity

QVQLVESGGGLVQAGGSLRLSCAASGLIFPIYAMGWYRPAPGKERELVAVITWSGGSTYYADSVKGRFTISRDNAKNTVYLQMNSLKPEDTAVYYCSVEWAYPYWYTYYLEDYWGQGTQVTVSS
polyreactivity (PSR sort gate): low polyreactivity

QVQLVESGGGLVQAGGSLRLSCAASGSTFWKYAMGWYRQAPGKEREFVAAITRSGGNTYYADSVKGRFTISRDNAKNTVYLQMNSLKPEDTAVYYCAKVYKLITSYRGFGYWGQGTQVTVSS
polyreactivity (PSR sort gate): high polyreactivity

HVQLVESGRGLVEAGGSLRLSCAAYGLGCTVNAMVWYIQAPGTERELVARIVWPGITYADSVKGRFTISLDNAMNTVYLQMNSQKPEDTAVYYCAAVWLHHSYYAKYDYWGQRTQVTVSS
polyreactivity (PSR sort gate): low polyreactivity

QVQLVESGGGLVQAGGSLRLSCAASGRIFRWNAMGWYRQAPGKEREFVAAISWNGGRTYYADSVMGRFTISRDNAKNTVYLQMNSLKPEDPAVYYCAATHSVPDLLSGDYWGQGTQVTVSS
polyreactivity (PSR sort gate): low polyreactivity

QVQLVESGGGLVQAGGSLRLSCAASGRIFVYNAMGWYRQAPGKERELVAAITRGGSTYYADSVKGRFTISRDNAKNTVYLQMNSLNPEDTAVYYCASDYQRNDFRWYDYWGQGTQVTVSS
polyreactivity (PSR sort gate): low polyreactivity

QVQLVESGGGLVQAGGSLRLSCAASGSIFWGNTMGWYRQAPGKERELVAAISRSGSSTYYADSVKGRFTISRDNAKNTVYLQMNSLKPEDTAVYYCAASVPYYTGYYYNAYEYWGQGTQVTVSS
polyreactivity (PSR sort gate): high polyreactivity

QVQLVESGGGLVQAGGSLRLSCAASGFTFWPYTMGWYRQAPGKERELVAVISSSGGSTYYADSVKGRFTISRDNAKNTVYLQMNSLKPEDTAVYYCNARRRYGHVDYWGQGTQVTVSS
polyreactivity (PSR sort gate): high polyreactivity

QVQLVESGGGLVQAGGSLRLSCAASGSTSRYNAMGWYRQAPGKERELVARINSGGTTNYADSVKGRFTISRDNAKNTVYLQMNSLKPEDTAVYYCNAYYYFWGQGTQVTVSS
polyreactivity (PSR sort gate): low polyreactivity

QVQLVESGGGLVQAGGSLRLSCAASGSTFGVYAMGRYRQAPGKERELVAAISYGDSTNYADSVKGRFTISRDNAKNTVYLQMNSLIPEDTAVYYCNALELYAAYPEYYLYYWYDYWGQGTQVNVSS
polyreactivity (PSR sort gate): high polyreactivity

QVQLVESGGGLVQAGGSLSLSCAASGLTFAKNAMGWYRQAPGKERELVAVITSSGGSTYYADSVKGRFTISRDNAKNTVYLQMNSLKPEDTAVYYCNVAYYDRSRSTGYEYWGQGTQVTVSS
polyreactivity (PSR sort gate): high polyreactivity

QVQLQESGGGLAQAGGSLRLTCAASGTIFPADSMGWYRQAPGKERELVAGITSGANTYYADSVKGRFTISHDNAKNTVYLQMDSLIPEDIAVYYCGAPGSSTYDLEYWGQGTQVTVSS
polyreactivity (PSR sort gate): high polyreactivity

QVQLVESGGGLVQAGGSLRLSCAASGSTFGINAMGWYRQAPGKERELVASITRRGGSTYYADSVKGRFTISRDNAKNTVYLQMNSLKPEDTAVYYCNKTYRYGTPLYDYWGQGTQVTVSS
polyreactivity (PSR sort gate): high polyreactivity

QVQLVESGGGLVQAGGSLRLSCAASGRIFRYNTMGWYRQAPGKERELVAAITYRGGSTYYADSVKGRFTISRDNAKNTVYLQMNSLKPEDTAVYYCAASPARYWYGGKEYDYWGQGTQVTVSS
polyreactivity (PSR sort gate): high polyreactivity

QVQHVESGGGLVQAGGSLRLSCAASGRTFTRYTMGWYRQAPGKERELVAAIRFSGGSTYYADSVKGRFTISRDNAKNTVYLQMNSLKPEDTAVYYCAATGGWYKHWFDYWGQGTQVTVSS
polyreactivity (PSR sort gate): low polyreactivity

QVHLVESGGGLVQAGGSLRLSCASSGSTFRSYGMGWYRPAPGKERELVAAISSSGGSTYYADSVKGRFTISRDNAKNTVYLQMNSLKPEDSAVYYCAAGSRLVSARLYYWGQGTQVTVSS
polyreactivity (PSR sort gate): high polyreactivity

QVQLVESGGGLVQAGGSLRLSCAASGFTFWDYTMGWYRQAPGKERELVAAITRSGGRTYYADSVKGRFTISRDNAKNTVYLQMNSLKPEDTAVYYCAAKIWSKDEKHDYWGQGTQVTVSS
polyreactivity (PSR sort gate): high polyreactivity

QVQLVESGGGLVQAGGSLRLSCAASGSTFEPYARGWYRQAPGKERELVAAISSSGSTNYADSVKGRFTISRDNAKNTVYLQMNSLKPEDTAVYYCNARRQRSPIEVCERGYWGQGTQVTVSS
polyreactivity (PSR sort gate): high polyreactivity

QVQLVESGGGLVQAGGSLRLSCAASGSIFYFNAMGWYRQAPGKERELVAAINISGSSTSYADSVKGRFTISRDNAKNTVYLQMNSLKPEDTAVYYCYAGPYTYLHWNQAISRYYYWGQGTQVTVSS
polyreactivity (PSR sort gate): low polyreactivity

QVQLVESGGGLVQAGGSLRLTCAASGRTFHGNAMGWYRPAPGKERELVAAISYSGGRTYYADSVKGRFTISRDNAKNTVYLQMNSLKPEDTAVYYCAAWGSSYSFDYWGQGTQVTVSS
polyreactivity (PSR sort gate): high polyreactivity

QVQLVESGGGLVQAGGSLRLSCAASGSIFTPNAMGWYRQAPGKERELVAAISQSGGSTYYADSVKGRFTISRDNAMNTVYLQMNSLKPEDTAVYYCGASVRHRGYDYWGQGTQVTVSS
polyreactivity (PSR sort gate): high polyreactivity

QVQLVESGGGLVQAGGSLRLSCAASGIIFRSNAMGWYRQAAGNERELVAAISQRGGSTYYADSVKGRFTISRDNAKNTVYLQMNSLKPEDTAVYYCNALQRRYGGGGNDYWGQGTQVTVSS
polyreactivity (PSR sort gate): high polyreactivity

QVQLVESGGGLVQAGGSLRLSCAASGRTFYRNAMGWYRQAPGKERELVATINSGGSTHYADSVKGRFTISRDNAKNSVYLQMNSLKPEDTAVYYCAARSPSYRGSLSYYWGHGTQVTVSS
polyreactivity (PSR sort gate): high polyreactivity

QVQLVESGGGLVQAGGSLRLSCAASGSTFHSNAMGGYRQAPGKERELVAAISSGGSTNYADSVKGRFTISRDNAKNTVYLQMNSLKPEDTAVYYCAAVWRYLGYTAMDYWGQGTQVTVSS
polyreactivity (PSR sort gate): low polyreactivity

QVQLVESGGGLVQAGGSLRLSCAASGSIFRRNAMGWYRQAPGKERELVAAISSSGNTYYADSVKGRFTISRDNAKNTVYLQMNSLKPEDTAVYYCAADGRNYYGSYDYWGQGTQVTVSS
polyreactivity (PSR sort gate): low polyreactivity

QVQLVESGGGLVQAGGSLRLSCAASGFTFLSYTMGWYRQAPGKERELVASITASGTRTYYADSVKGRFTISRDNAKNTVYLQMNRLKPEDTAVYYCAARRSGSGSHDYGYWGQGTQVTVSS
polyreactivity (PSR sort gate): low polyreactivity

QVQLVESGGGLVQAGGSLRLSCAASGFTFNDYAMGWYRQAPGKARELVAAIEWYGGRTYYADSVKGRFTISRDHAKNTDYFHMTSLKPVATAVYYCAAVLYSRLDWYRLDYWGQGTQVTVSS
polyreactivity (PSR sort gate): low polyreactivity

QVQLVESGGGLVQAGGSVRLSCAASGSTFYHYALGWYRQAPGKERELVAAISWYGGSTYYADSVKGRFTISRDNAKNTVYLQMNSLKPEDTAVYYCAARGRARQRTSFEYWGQGTQVTVSS
polyreactivity (PSR sort gate): high polyreactivity

QVQLQESGGGLVQAGGSLRLSCAASSNNSTLDVKGWYRQAPGKEREFVASIGSGGITNYADSVKGRFTISRDNAKNTVYLQMNSLKPEDTAVYYCAVLNQAYTDLIYWGQGTQVTVSS
polyreactivity (PSR sort gate): high polyreactivity

HVQVVESGGGLVQEGGSLRLICAASGYLFAYYAMGWFRQAPGKERELVAPIRSGGSTNYADSVKGRFTISRDNAKNTVYLQMNSLKPEDTAVYYCAKGDRRWTLCRPDYDYWGQGTQVTVAS
polyreactivity (PSR sort gate): low polyreactivity

QVQLVESGGGLVQAGGSLRLSCPASGRIVANAMGWYIQAPGKERELVAAISSVGSTNYADSVKGRFTISRDNAKNTVYLQMNSLKPEDTAVYYCAARGYRWYIAVDFWGQGTQVTVSS
polyreactivity (PSR sort gate): low polyreactivity

QVQLVESGGGLVQAGGSLRLSCAASGSNFRYYALGWYRQAPGKERELVAGNTGSTGRTYYADSVKGRFTISRDNAKNTVYLQMNRLKPEDTAVYYCATGIYRARTSSFRMGYWGQGTHVTVSS
polyreactivity (PSR sort gate): low polyreactivity

QVQLVESGGGLVQAGGSLRLSCAASGFIFSSHAMGWYRQAPGKERELVAAISRSGGRTYYADSVKGRFTISRDNAKNTVYLQMNSLKPEDTAVYYCAAKRWWQYYWGQGTQVTVSS
polyreactivity (PSR sort gate): high polyreactivity

QVQLVESGGGLVQAGGSLRLSCAASGRIFYINAMGWYRQAPGKERELVAAITEGGVSTYYADSVKGRFTISRDNAKNTVYLQMNSLKPEDTAVYYCNTTGGPDGIVIYEYWGQGTQVTVSS
polyreactivity (PSR sort gate): low polyreactivity

QVQLVDSGGGLVQAGGSLRLSCAASGFIFVDYVMGWSRQAPGKERELVAAITRGGSTNYADSVKGRFTISRDNAKNTVYLQMNSLKPEDTAVYYCAVRWYRKYNYWGQGTQVTVSS
polyreactivity (PSR sort gate): high polyreactivity

QVQLVESGGGLVQAGGSLRLSCAASGIPRNTMGWYRQAPGKERELVASISTSGGSTYYADSVKGRFTLSRDNANNTVYLQMNSLKPEDTAVYYCAKKGYASRYFIYDYWGQGTQVTVSS
polyreactivity (PSR sort gate): low polyreactivity

QVQLVDSGGGLVQAGGSLRLSCAASGRTFTQNAKGWYRPAPGKERELVAAIRRGGSTNYADSVKWRFTISRDNAKNTVYLQMKSLKPEDTAVYYCATECYYGFSYRYDFWGLGTQVTVSS
polyreactivity (PSR sort gate): high polyreactivity

QVQLVESGGGLVQAGGSLRLSCAASGWYRQAPGKERELVAAITYSGGSTYYADSVKGRFTISRDNAKNTVYLQMNSLKPEDTAVYYCAKQGLWIFVVVEMDYWGQGTQVTVSS
polyreactivity (PSR sort gate): low polyreactivity

QVQLVESGGGLVQAGGSLRLSCAASGSNFGRYVMGWYRQAPGKERELVAAITRTGVRTYYADSVKGRFTISRDNANNTVYLQINSLKPEDTAVYYCNRYGARSNDYWGQGTQVTESS
polyreactivity (PSR sort gate): low polyreactivity

QVQLVESGGGLVQAGGSLRLSCAASGFTFTSNIMGWYRQATGKERELVADISASDGRTYYADSVKGRFTISRDNAMNTVYLQMNSLKPEDTAVYYCNVSSRRLRGLDYWGQGTQVTVSS
polyreactivity (PSR sort gate): low polyreactivity

QVQLVESGGGLVQAGGSLRLSCAASGIIFPDYVMGWYRQAPGKERELVATITNDSSTTYADSVKGRFTISRDNAKNTVYLQMNSLKPEDTAVYYCAAPVDYQGDYWGQGTQVTVSS
polyreactivity (PSR sort gate): low polyreactivity

QVQLVESGGGLVQAGGSLRLSCAASGFTLGRYAMGWYRQAPGKEREFVAAISRGGGSTNYADSVKGRFTISRDNAKNTVYLQMNSLKPEDTAVYYCAADDHTSGYGYWGQGTQVTVSS
polyreactivity (PSR sort gate): high polyreactivity
